Results from patent US20250381289A1, “EGFR AND C-MET BISPECIFIC BINDING AGENTS, CONJUGATES THEREOF AND METHODS OF USING THE SAME” (GENMAB A/S, priority 2024, published 2025).
Positions count from the first letter of the chain named.

B1: Nova-5091: parent cMET mAb; sequences in Table 1 (antibody, V domains shown)
VH: QVQLVQSGAEVKKPGASVKVSCKASGYTFTGYYMNWVRQAPGQGLEWMGIINPWTGNTNYAQKFQGRVTMTRDTSISTAYMELSSLRSEDTAVYYCARDPGFFYYTPSDLWGQGTLVTVSS
VL: DIELTQPPSVSVAPGQTARISCSGDSIGNKYVHWYQQKPGQAPVLVIYADSDRPSGIPERFSGSNSGNTATLTISGTQAEDEADYYCQSYAHYHDIWVFGGGTKLTVLG
B2: Nova-5097: parent cMET mAb; sequences in Table 1 (antibody, V domains shown)
VH: QVQLVQSGAEVKKPGSSVKVSCKASGGTFSSYAISWVRQAPGQGLEWMGGIDPFGTANYAQKFQGRVTITADESTSTAYMELSSLRSEDTAVYYCARVYQDVWGQGTLVTVSS
VL: DIVMTQSPDSLAVSLGERATINCRSSQSILYGINNNFLGWYQQKPGQPPKLLIYWASTRESGVPDRFSGSGSGTDFTLTISSLQAEDVAVYYCQQYAFGWTFGQGTKVEIK
B3: Nova-5098: parent cMET mAb; sequences in Table 1 (antibody, V domains shown)
VH: B2 VH
VL: DIVMTQSPDSLAVSLGERATINCRSSQSILYGINNNFLGWYQQKPGQPPKLLIYWASTRESGVPDRFSGSGSGTDFTLTISSLQAEDVAVYYCLQYSDEPWTFGQGTKVEIK
B4: Nova-5185: parent cMET mAb; sequences in Table 1 (antibody, V domains shown)
VH: B2 VH with F54I, G55M, T56G, A57T, N58E
VL: B3 VL with L94Q, S97A, D98Y, W101N
B5: Onartuzumab: parent cMET mAb; sequences in Table 1 (antibody, V domains shown)
VH: EVQLVESGGGLVQPGGSLRLSCAASGYTFTSYWLHWVRQAPGKGLEWVGMIDPSNSDTRFNPNFKDRFTISADTSKNTAYLQMNSLRAEDTAVYYCATYRSYVTPLDYWGQGTLVTVSS
VL: DIQMTQSPSSLSASVGDRVTITCKSSQSLLYTSSQKNYLAWYQQKPGKAPKLLIYWASTRESGVPSRFSGSGSGTDFTLTISSLQPEDFATYYCQQYYAYPWTFGQGTKVEIK
B6: ABF-46: parent cMET mAb, mouse antibody; sequences in Table 1 (antibody, V domains shown)
VH: EVKLVESGGGLVQPGGSLRLSCATSGFTFTDYYMSWVRQPPGKALEWLGFIRNKANGYTTEYSASVKGRFTISRDNSQSILYLQMDTLRAEDSATYYCARDNWFAYWGQGTLVTVSA
VL: DILMTQSPSSLTVSAGEKVTMSCKSSQSLLASGNQNNYLAWHQQKPGRSPKMLIIWASTRVSGVPDRFIGSGSGTDFTLTINSVQAEDLAVYYCQQSYSAPLTFGAGTKLELK

System: EGFR and cMET co-expressed tumor cell lines (A431, A549, MDA-MB-468, MKN-45, NCI-H441, NCI-H1975)
Test: Binding activity of parent mAbs by flow cytometry
Conditions: flow cytometry on tumor cell lines, FIGS. 1A-1F, Table 4; compared with telisotuzumab (teliso)
Description: EGFR and cMET co-expressed tumor cell lines including A431 (ATCC® CRL-1555), A549 (ATCC® CCL-185, Provided by Procell), MDA-MB-468 (ATCC® HTB-132, Provided by Procell), MKN-45 (CL-0292, Provided by Procell), NCI-H441 (ATCC® HTB-174, Provided by COBIOER), NCI-H1975 (ATCC® CRL-5908, Provided by Procell) were selected for evaluating antibody binding activity by flow cytometry.
A431 was cultured with DMEM medium (Gibco, Cat #C11995500BT) containing 10% FBS. MDA-MB-468, MKN-45, NCI-H441 and NCI-H1975 were cultured with RPMI 1640 medium (Gibco, Cat #11875093) containing 10% FBS. A549 was cultured with F12K medium (Gibco, Cat #21127030) containing 10% FBS. Each antibody was incubated with different cell lines (1×10^5 cells/well) for 30 min in 0.2 mL FACS buffer (1×PBS with 0.1% BSA) at 4° C. After wash, cells were incubated with 100 μL PE-conjugated anti human Fc (Abcam, Ab98596, 1:500 dilution) for 30 min at 4° C. After wash with PBS, cells were resuspended in FACS buffer and analyzed by flow cytometer (Beckman, CytoFLEX).

Molecule	binding activity of parent cMET mAbs (summary)
B1	No binding activity
B2	Stronger binding than teliso, no clinical validation
B3	Stronger binding than teliso, no clinical validation
B4	Stronger binding than teliso, seems to have off-target binding
B5	Stronger binding than teliso, tumor promoting activity due to bivalent binding
B6	Lower activity than teliso, mouse antibody, filed in 2010; inferior choice
